Laboratory results: publication PMC3077247

Target: HECT domain of Nedd4, Y605A (as used for SPR) (UniProt P46934)
Experiment: SPR

HECT domain of Nedd4, Y605A (as used for SPR), sequence (P46934 938-1319 Y1024A): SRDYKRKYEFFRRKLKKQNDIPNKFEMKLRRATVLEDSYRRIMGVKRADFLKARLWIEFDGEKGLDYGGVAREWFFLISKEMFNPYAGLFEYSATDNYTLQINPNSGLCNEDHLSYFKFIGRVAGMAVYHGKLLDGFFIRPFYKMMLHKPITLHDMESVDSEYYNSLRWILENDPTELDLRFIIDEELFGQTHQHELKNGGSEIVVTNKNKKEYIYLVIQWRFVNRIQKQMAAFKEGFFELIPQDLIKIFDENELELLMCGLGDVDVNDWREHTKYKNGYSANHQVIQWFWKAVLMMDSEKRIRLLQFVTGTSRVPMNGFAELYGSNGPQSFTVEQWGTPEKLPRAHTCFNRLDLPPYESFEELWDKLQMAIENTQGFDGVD

**Q.** Which fold decrease in binding against wild-type HECT^Nedd4 does the source give for “ubiquitin (monomeric) (from UniProt P0CG48 1-76) (natural protein)” here?
**A.** Its fold decrease in binding against wild-type HECT^Nedd4 is 20 fold.
